Experimental data from patent US9579365B2, “Therapeutic ribonucleases” (Quintessence Biosciences, Inc., priority 2008, dated 2017).

How the values were obtained:
[1] = target: T1, ribonuclease inhibitor (Homo sapiens, UniProt P13489); test: ribonuclease inhibitor evasion; assay type: binding; conditions: compared with QBI-119 and native human RNase 1
T1 sequence (P13489 1-461): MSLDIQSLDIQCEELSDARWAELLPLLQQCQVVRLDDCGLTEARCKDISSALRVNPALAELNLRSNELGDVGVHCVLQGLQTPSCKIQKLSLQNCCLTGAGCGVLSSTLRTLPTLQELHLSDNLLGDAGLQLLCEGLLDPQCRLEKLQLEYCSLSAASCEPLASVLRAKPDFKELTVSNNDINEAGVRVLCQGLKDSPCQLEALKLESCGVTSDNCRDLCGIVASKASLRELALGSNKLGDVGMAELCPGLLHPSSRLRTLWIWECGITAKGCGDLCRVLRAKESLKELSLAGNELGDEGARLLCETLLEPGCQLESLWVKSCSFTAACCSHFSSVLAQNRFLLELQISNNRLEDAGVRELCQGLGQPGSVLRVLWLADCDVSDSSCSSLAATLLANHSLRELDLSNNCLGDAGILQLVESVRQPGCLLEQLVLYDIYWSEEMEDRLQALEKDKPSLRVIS

[2] = system: RNA; test: ribonuclease (enzyme) activity compared with native human RNase 1; assay type: biochemical

B1: SEQ ID NO:1: native human RNase 1 with amino acid modifications R4C, G38R, R39G, N67R, G89R, S90R, and V118C (protein)
chain: KESCAKKFQRQHMDSDSSPSSSSTYCNQMMRRRNMTQRGCKPVNTFVHEPLVDVQNVCFQEKVTCKRGQGNCYKSNSSMHITDCRLTNRRRYPNCAYRTSPKERHIIVACEGSPYVPCHFDASVEDST
ribonuclease inhibitor evasion, comparison in words [1]: inferior to QBI-119 and native human RNase 1
enzyme activity, comparison in words ([2]; compared with QBI-119 and native human RNase 1): inferior to QBI-119 and native human RNase 1
fraction of the ribonuclease activity of native human RNase1 ([2]; relative to native human RNase 1): less than 1%
